Measurements published in US20200291070A1.
Numbered stars: 1 amine (or outer) side, 2 acyl side, 3 side chain; on linkers, the order of the positions; unused ones are H or OH. Bridge positions count the residues as written; N and C are the ends. Square brackets hold non-standard residues; d marks the D form. Ends that are not written are not given here. Tm = trimesic acid, bicyclized on Tm at the N-terminus; Trimesoyl = O=C(c1cc(C(=O)[*:2])cc(C(=O)[*:3])c1)[*:1]; 2Nal = N[C@@H](Cc1ccc2ccccc2c1)C(=O)O; Dap = NC[C@H](N)C(=O)O; βAla = NCCC(=O)O

B1: peptide 15, Tm(GWIYA)Δ(AΦRrRΔ)-BBK (peptide)
peptide: Trimesoyl-GWIYA[Dap]A[2Nal]R[dR]R[Dap][βAla][βAla]K
modifications: linker N-6-12 via Tm
B2: peptide 20, Tm(GAIAA)Δ(FΦRrRΔ)-BBK (peptide)
peptide: Trimesoyl-GAIAA[Dap]F[2Nal]R[dR]R[Dap][βAla][βAla]K
modifications: linker N-6-12 via Tm
B3: peptide 11, Tm(AWIYA)Δ(FΦRrRΔ)-BBK (peptide)
peptide: Trimesoyl-AWIYA[Dap]F[2Nal]R[dR]R[Dap][βAla][βAla]K
modifications: linker N-6-12 via Tm
B4: peptide 3, Tm(GWIY)Δ(FΦRRRRΔ)-BBK (peptide)
peptide: Trimesoyl-GWIY[Dap]F[2Nal]RRRR[Dap][βAla][βAla]K
modifications: linker N-5-12 via Tm
B5: peptide 6, Tm(GWIY)Δ(FΦRrRΔ)-BBK (peptide)
peptide: Trimesoyl-GWIY[Dap]F[2Nal]R[dR]R[Dap][βAla][βAla]K
modifications: linker N-5-11 via Tm
B6: peptide 7, Tm(GWIYA)Δ(FΦRrRΔ)-BBK (peptide)
peptide: Trimesoyl-GWIYA[Dap]F[2Nal]R[dR]R[Dap][βAla][βAla]K
modifications: linker N-6-12 via Tm
B7: peptide 8, Tm(GWIYa)Δ(FΦRrRΔ)-BBK (peptide)
peptide: Trimesoyl-GWIY[dA][Dap]F[2Nal]R[dR]R[Dap][βAla][βAla]K
modifications: linker N-6-12 via Tm
B8: peptide 18, Tm(GWIYA)Δ(FΦRaRΔ)-BBK (peptide)
peptide: Trimesoyl-GWIYA[Dap]F[2Nal]R[dA]R[Dap][βAla][βAla]K
modifications: linker N-6-12 via Tm
B9: peptide 21, Tm(GAAAA)Δ(FΦRrRΔ)-BBK (peptide)
peptide: Trimesoyl-GAAAA[Dap]F[2Nal]R[dR]R[Dap][βAla][βAla]K
modifications: linker N-6-12 via Tm
B10: peptide 10, Tm(aGWIY)Δ(FΦRrRΔ)-BBK (peptide)
peptide: Trimesoyl-[dA]GWIY[Dap]F[2Nal]R[dR]R[Dap][βAla][βAla]K
modifications: linker N-6-12 via Tm
B11: peptide 12, Tm(GAIYA)Δ(FΦRrRΔ)-BBK (peptide)
peptide: Trimesoyl-GAIYA[Dap]F[2Nal]R[dR]R[Dap][βAla][βAla]K
modifications: linker N-6-12 via Tm
B12: peptide 9, Tm(AGWIY)Δ(FΦRrRΔ)-BBK (peptide)
peptide: Trimesoyl-AGWIY[Dap]F[2Nal]R[dR]R[Dap][βAla][βAla]K
modifications: linker N-6-12 via Tm
B13: peptide 2, Tm(GWIY)Δ(FΦRRRΔ)-BBK (peptide)
peptide: Trimesoyl-GWIY[Dap]F[2Nal]RRR[Dap][βAla][βAla]K
modifications: linker N-5-11 via Tm
B14: peptide 13, Tm(GWAYA)Δ(FΦRrRΔ)-BBK (peptide)
peptide: Trimesoyl-GWAYA[Dap]F[2Nal]R[dR]R[Dap][βAla][βAla]K
modifications: linker N-6-12 via Tm
B15: peptide 14, Tm(GWIAA)Δ(FΦRrRΔ)-BBK (peptide)
peptide: Trimesoyl-GWIAA[Dap]F[2Nal]R[dR]R[Dap][βAla][βAla]K
modifications: linker N-6-12 via Tm
B16: peptide 17, Tm(GWIYA)Δ(FΦArRΔ)-BBK (peptide)
peptide: Trimesoyl-GWIYA[Dap]F[2Nal]A[dR]R[Dap][βAla][βAla]K
modifications: linker N-6-12 via Tm

Experiments:
[1] = molecular target: Recombinant GST-NEMO (from plasmid pGEX4T3-NEMO(1-196)) (UniProt Q9Y6K9); assay: HTRF competition against biotin-IKKβKK/RR(701-745) on GST-NEMO
Sequence of Recombinant GST-NEMO (from plasmid pGEX4T3-NEMO(1-196)) (Q9Y6K9 1-196): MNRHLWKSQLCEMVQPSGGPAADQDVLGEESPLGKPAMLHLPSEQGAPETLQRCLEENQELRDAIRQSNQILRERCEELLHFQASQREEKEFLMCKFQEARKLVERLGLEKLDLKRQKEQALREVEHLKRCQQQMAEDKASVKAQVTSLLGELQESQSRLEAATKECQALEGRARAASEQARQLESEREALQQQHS

[2] = molecular target: Recombinant GST-NEMO (from plasmid pGEX4T3-NEMO(1-196)) (UniProt Q9Y6K9); assay: HTRF competition IC50 against peptide 7
[3] = molecular target: Recombinant GST-NEMO (from plasmid pGEX4T3-NEMO(1-196)) (UniProt Q9Y6K9); assay: HTRF competition IC50, peptide 7 against peptide 6
[4] = molecular target: Recombinant GST-NEMO (from plasmid pGEX4T3-NEMO(1-196)) (UniProt Q9Y6K9); assay: HTRF competition IC50 against peptide 7; upper end tied to peptide 12 by Table 5 (3.0 vs 1.0 µM)
[5] = molecular target: Recombinant GST-NEMO (from plasmid pGEX4T3-NEMO(1-196)) (UniProt Q9Y6K9); assay: HTRF competition against biotin-IKKβKK/RR(701-745) on GST-NEMO; lower end tied to peptide 2 by the same paragraph
[6] = molecular target: Recombinant GST-NEMO (from plasmid pGEX4T3-NEMO(1-196)) (UniProt Q9Y6K9); assay: HTRF competition IC50 against peptide 7; lower end tied to peptide 13 by Table 5 (1.7 vs 1.0 µM)

Molecule | IC50 [1] [nM] | also measured
peptide 19, Tm(GWIYA)Δ(FΦRrRΔ)-BBK (as printed) | 1200 | 
B1 | 1900 | 
B2 | 16000 | fold lower NEMO-binding affinity (against peptide 7) [2]: 16 fold
B3 | 1200 | 
B4 | 1500 | 
B5 | 5900 | 
B6 | 1000 | fold increase in binding affinity (against peptide 6) [3]: 5.9 fold
B7 | 2900 | 
B8 | 2100 | 
B9 |  | fold lower NEMO-binding affinity (against peptide 7) [2]: > 100 fold
B10 | 2300 | 
B11 | 3000 | fold decrease in potency (against peptide 7) [4]: 2 to 3 fold
B12 | 2200 | 
B13 | 3400 | IC50 [5]: 3400 to 28000 nM
B14 | 1700 | fold decrease in potency (against peptide 7) [6]: 2 to 3 fold
B15 | 2800 | 
B16 | 1100 | 
